Source: paper PMC8230665, “Specificity of Human Sulfiredoxin for Reductant and Peroxiredoxin Oligomeric State” (Antioxidants, 2021)

T1: hyperoxidized wild-type human peroxiredoxin 1, decameric (Prx1-SO2H) (human, UniProt Q06830 1-199, cysteine sulfinic acid at the peroxidatic cysteine (CP-SO2H; CP is Cys52))
T1 construct: peroxiredoxin 1 (Prx1), human; also called hyperoxidized Prx1; copies: 10
T1 sequence (looked up): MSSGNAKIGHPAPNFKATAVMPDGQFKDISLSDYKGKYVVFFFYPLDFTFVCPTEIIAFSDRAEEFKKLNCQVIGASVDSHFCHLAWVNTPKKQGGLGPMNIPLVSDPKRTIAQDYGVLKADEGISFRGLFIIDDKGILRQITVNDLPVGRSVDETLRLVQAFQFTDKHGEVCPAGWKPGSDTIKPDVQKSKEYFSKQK


Tests used:
[1] = biological target: T1, hyperoxidized wild-type human …; experiment: fluorescence polarisation; Oregon Green 514-labelled Srx variants, decameric Prx1-SO2H added; MgCl2 omitted to prevent turnover; curves fit to a single site, saturable model; conditions: both partners purified
[2] = biological target: the molecule itself; experiment: SEC-MALS; 2 mg/mL (86-93 µM) Prx in 50 mM HEPES pH 7.5, 100 mM NaCl; TSK Gel 4000 SW; reduced samples with 10 mM DTT, oxidized samples with 1.2 equivalents of H2O2
[3] = biological target: the molecule itself; experiment: crystal structure; disulfide-bonded Srx-Prx1 complex (Cys99 of Srx to Cys52 of Prx1); hanging drop, 100 mM citric acid pH 4.5, 26% PEG 400, 100 mM CsCl; 3.0 Å, space group C2

Row | Binder | stoichiometry N [2] | other results
1 | Oregon Green 514-labelled human sulfiredoxin (Srx), wild type (enzyme, Oregon Green 514 label (position not given), sulfiredoxin (Srx), human; also called WT Srx; Oregon Green labeled Srx) not shown | – | Kd [1]: 7 ± 1.5 µM
2 | human peroxiredoxin 3 Ser139Glu/Ala142Glu, engineered dimer (enzyme, UniProt P30048 62-256, looked up, peroxiredoxin 3 (Prx3), mitochondrial, human; Vector pET15b; His tag removed with thrombin; In the repair assay the protein was about 20% hyperoxidized; also called Prx3-S139E/A142E; Prx3-EE; source: E. coli BL21Gold (DE3), purified (HisPur Cobalt, Q-Sepharose, Superdex 200); not shown: His tag, N-terminal, cleaved) APAVTQHAPYFKGTAVVNGEFKDLSLDDFKGKYLVLFFYPLDFTFVCPTEIVAFSDKANEFHDVNCEVVAVSVDSHFEHLEWINTPRKNGGLGHMNIALLSDLTKQISRDYGVLLEGSGLALRGLFIIDPNGVIKHLSVNDLPVGRSVEETLRLVKAFQYVETHGEVCPANWTPDSPTIKPSPAASKEYFQKVNQ | 2 | –
3 | human peroxiredoxin 3, wild type (enzyme, UniProt P30048 62-256, looked up, peroxiredoxin 3 (Prx3), mitochondrial, human; In the repair assay the protein was hyperoxidized (CP-SO2H); also called Prx3; WT Prx3; copies: 12) APAVTQHAPYFKGTAVVNGEFKDLSLDDFKGKYLVLFFYPLDFTFVCPTEIVAFSDKANEFHDVNCEVVAVSVDSHFSHLAWINTPRKNGGLGHMNIALLSDLTKQISRDYGVLLEGSGLALRGLFIIDPNGVIKHLSVNDLPVGRSVEETLRLVKAFQYVETHGEVCPANWTPDSPTIKPSPAASKEYFQKVNQ | 12 | –
4 | human peroxiredoxin 1 variant C71S, C83V, C173S (decamer) (enzyme, Cys52 disulfide-bonded to Cys99 of Srx (made through a Cys52-S-TNB mixed disulfide), peroxiredoxin 1 (Prx1), human; Only the peroxidatic Cys52 is left; C83V was put in to stabilise the decamer; also called Prx1 variant; Prx1 C83V mutant; source: purified; treated with DTNB, then titrated with Srx; copies: 10) MSSGNAKIGHPAPNFKATAVMPDGQFKDISLSDYKGKYVVFFFYPLDFTFVCPTEIIAFSDRAEEFKKLNSQVIGASVDSHFVHLAWVNTPKKQGGLGPMNIPLVSDPKRTIAQDYGVLKADEGISFRGLFIIDDKGILRQITVNDLPVGRSVDETLRLVQAFQFTDKHGEVSPAGWKPGSDTIKPDVQKSKEYFSKQK | – | stoichiometry N [3]: 10
5 | human peroxiredoxin 2, wild type (enzyme, UniProt P32119 1-198, looked up, peroxiredoxin 2 (Prx2), human; Stored in the disulfide-bonded form; run on SEC-MALS reduced (10 mM DTT) or oxidized (1.2 equivalents of H2O2); In the repair assay the protein was hyperoxidized (CP-SO2H); also called Prx2; WT Prx2; copies: 10) MASGNARIGKPAPDFKATAVVDGAFKEVKLSDYKGKYVVLFFYPLDFTFVCPTEIIAFSNRAEDFRKLGCEVLGVSVDSQFTHLAWINTPRKEGGLGPLNIPLLADVTRRLSEDYGVLKTDEGIAYRGLFIIDGKGVLRQITVNDLPVGRSVDEALRLVQAFQYTDEHGEVCPAGWKPGSDTIKPNVDDSKEYFSKHN | 10 | –
6 | human peroxiredoxin 2 Thr82Glu, engineered dimer (enzyme, UniProt P32119 1-198, looked up, peroxiredoxin 2 (Prx2), human; Vector pET19pp; His tag removed with HRV-3C protease; Section 2.6 prints the mutation as T83E; In the repair assay the protein was about 80% hyperoxidized; also called Prx2-T82E; Prx2-E; source: E. coli BL21Gold (DE3), purified (HisPur Cobalt, Q-Sepharose, Superdex 200); not shown: His tag, N-terminal, cleaved) MASGNARIGKPAPDFKATAVVDGAFKEVKLSDYKGKYVVLFFYPLDFTFVCPTEIIAFSNRAEDFRKLGCEVLGVSVDSQFEHLAWINTPRKEGGLGPLNIPLLADVTRRLSEDYGVLKTDEGIAYRGLFIIDGKGVLRQITVNDLPVGRSVDEALRLVQAFQYTDEHGEVCPAGWKPGSDTIKPNVDDSKEYFSKHN | 2 | –
7 | Oregon Green 514-labelled human sulfiredoxin Tyr128Ala (enzyme, Oregon Green 514 label (position not given), sulfiredoxin (Srx), human; The unlabelled variant was used in the HPLC activity assay; also called Srx Y128A; source: site-directed mutant (QuikChange), purified) not shown | – | Kd [1]: 12.5 ± 1.2 µM
